Data set [1] has as its target KSHV LANA DNA binding domain, kLANA_(1019–1150) (KSHV). Kind of data set: SEC; gel filtration in the presence of 1 M NaCl. (In general: SEC sorts molecules by how far they enter the pores of the column.)
Data set [2] shares this target. Briefly: crystal structure.
The target of data set [3] is kLANA_(k1109E, A1121E) (KSHV). Kind of data set: SEC.
For data set [4], the target named is kLANA_(k1109E, A1121E) (KSHV). Briefly: SEC. The source holds these as a separate data set.
For data set [5], the target named is kLANA_(1008–1150 (K1109E)) (KSHV). Briefly: SAXS.
The target is the same in data set [6]. Briefly: SEC.
The target in data set [7] is MHV-68 LANA DNA binding domain, mLANA_(124–314) (MHV-68). Kind of data set: SAXS.
Data set [8] has the same target. Briefly: SAXS. This is another data set of the same source.
Data set [9] shares this target. Kind of data set: SEC.
In data set [10] the target is mLANA DBD (Murine gammaherpesvirus 68 (MHV-68)) (UniProt O41974). Kind of data set: ITC. On the technique in general: In ITC the heat of successive injections is recorded.
In data set [11] the target is KSHV LANA DNA binding domain, kLANA_(1008–1150) (KSHV). Briefly: SAXS.
The target is the same in data set [12]. Kind of data set: SEC.

We go through six substances from publication PMC4787769.

Where “and” joins values, the source holds several entries; their conditions need not be identical. Equal entries are not always repeated. Where two headings read alike, the source gives them in different places. Where only a bound is given, the exact number is not on record here.

On to “KSHV LANA DNA binding domain, kLANA_(1019–1150) (domain or fragment)”, for which the stoichiometry N (usually a count of units in the complex or per binding partner) was 2 in data set [1]; 2 and 4 in [2].
On to “kLANA_(k1109E, A1121E) (domain or fragment)”, for which the stoichiometry N in [3] is 4; in data set [4], 2.
For the substance “kLANA_(1008–1150 (K1109E)) (domain or fragment)”, in data set [5], the percent of species present as bent tetramer was determined as 20%; the percent of species present as dimer is under 80%; the stoichiometry N is 2 and 4. The stoichiometry N in data set [6] is 2 and 4.
Turning to “MHV-68 LANA DNA binding domain, mLANA_(124–314) (domain or fragment)”, the stoichiometry N in data set [7] was 4; in [8] it was 8; in data set [9] it was 2 and 4.
For the substance kLBS1-2, the dissociation constant Kd (in general, the concentration at which binding is half-saturated) in data set [10] turned out to be 71.7 nM.
For “KSHV LANA DNA binding domain, kLANA_(1008–1150) (domain or fragment)”, in data set [11], the percent of the mixture present as octamer with two kLBS1–2 DNA worked out at 74%; the stoichiometry N was 8 and 4. Moreover, the stoichiometry N in data set [12] was 2 and 4.
